# Reference: PMC3584105, “Acute BDNF Treatment Upregulates GluR1-SAP97 and GluR2-GRIP1 Interactions: Implications for Sustained AMPA Receptor Expression” (PLoS ONE, 2013)
# Molecular target: T1, GluR2 (wild type, full length, expressed in HEKTrkB cells) (UniProt P19491 22-883)
# T1 construct: AMPA receptor subunit GluR2, wild type cDNA in a CMV expression vector; the deletion mutants of the same cDNA end at residue 862; also called WT GluR2; full length GluR2; source: HEKTrkB cells, transiently co-transfected (cDNA downstream from the CMV promoter), in lysate
# T1 sequence (P19491 22-883): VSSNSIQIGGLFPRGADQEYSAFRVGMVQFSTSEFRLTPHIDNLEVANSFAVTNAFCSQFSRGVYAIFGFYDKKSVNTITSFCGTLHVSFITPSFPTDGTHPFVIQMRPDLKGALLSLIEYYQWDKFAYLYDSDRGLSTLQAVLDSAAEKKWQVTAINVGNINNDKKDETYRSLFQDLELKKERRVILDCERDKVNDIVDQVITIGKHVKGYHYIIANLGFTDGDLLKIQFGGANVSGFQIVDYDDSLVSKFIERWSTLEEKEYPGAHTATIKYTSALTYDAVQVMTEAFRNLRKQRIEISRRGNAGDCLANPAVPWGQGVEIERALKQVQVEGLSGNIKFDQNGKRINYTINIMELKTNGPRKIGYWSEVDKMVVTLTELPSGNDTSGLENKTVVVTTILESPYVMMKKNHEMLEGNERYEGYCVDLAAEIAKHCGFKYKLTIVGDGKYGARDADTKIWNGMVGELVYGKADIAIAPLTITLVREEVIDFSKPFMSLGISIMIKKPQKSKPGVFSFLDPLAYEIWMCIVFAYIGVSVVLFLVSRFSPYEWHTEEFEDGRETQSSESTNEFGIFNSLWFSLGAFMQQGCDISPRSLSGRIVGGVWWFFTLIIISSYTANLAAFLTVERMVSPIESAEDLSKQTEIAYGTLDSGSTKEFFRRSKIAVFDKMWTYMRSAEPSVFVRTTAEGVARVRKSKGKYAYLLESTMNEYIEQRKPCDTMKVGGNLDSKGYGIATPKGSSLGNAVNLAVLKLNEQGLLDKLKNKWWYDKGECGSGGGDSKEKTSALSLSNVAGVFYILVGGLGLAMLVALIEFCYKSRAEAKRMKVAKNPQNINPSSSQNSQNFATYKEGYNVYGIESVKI
# Assay: co-IP; lysate of HEKTrkB cells co-transfected with GluR2 and GRIP1, treated with BDNF (1 h, 50 ng/mL) or not; precipitation with anti-N-terminal GluR2 and blot with anti-GRIP1, or precipitation with anti-GRIP1 and blot with anti-C-terminal GluR2/3
# Conditions: partners not purified
binder,measurement,value
"GRIP1 (expressed in HEKTrkB cells) (natural protein, UniProt P97879 1-1112, looked up, source: HEKTrkB cells, transiently co-transfected (cDNA downstream from the CMV promoter), in lysate) MIAVSFKCRCQILRRLTKDESPYTKSASQTKPPDGALAVRRQSIPEEFKGSTVVELMKKEGTTLGLTVSGGIDKDGKPRVSNLRQGGIAARSDQLDVGDYIKAVNGINLAKFRHDEIISLLKNVGERVVLEVEYELPPVSIQGSSVMFRTVEVTLHKEGNTFGFVIRGGAHDDRNKSRPVVITCVRPGGPADREGTIKPGDRLLSVDGIRLLGTTHAEAMSILKQCGQEATLLIEYDVSVMDSVATASGPLLVEVAKTPGASLGVALTTSVCCNKQVIVIDKIKSASIADRCGALHVGDHILSIDGTSMEYCTLAEATQFLANTTDQVKLEILPHHQTRLALKGPDHVKIQRSDRQLPWDPWASSQCSVHTNHHHNPHHPDHCRVPALGFPKALTPNSPPAMVSSSSPTSMSAYSLSSLNMGTLPRSLYSTSPRGTMMRRRLKKKDFKSSLSLASSTVGLAGQVVHTETTEVVLTADPVTGFGIQLQGSVFATETLSSPPLISYIEADSPAERCGVLQIGDRVMAINGIPTEDSTFEEANQLLRDSSITSKVTLEIEFDVAESVIPSSGTFHVKLPKKHSVELGITISSPSSRKPGDPLVISDIKKGSVAHRTGTLELGDKLLAIDNIRLDSCSMEDAVQILQQCEDLVKLKIRKDEDNSDEQESSGAIIYTVELKRYGGPLGITISGTEEPFDPIIISSLTKGGLAERTGAIHIGDRILAINSSSLKGKPLSEAIHLLQMAGETVTLKIKKQTDAQPASSPKKLPIPSHSSDLGDGEEDPSPIQRPGKLSDVYPSTVPSVDSAVDSWDGSGIDARYGSQGTTFQTSGYNFNTYDWRSPKKRASLSPVPKPRSQTYPDVGLSNEDWDRSTASGFAGASDSADAEQEENFWSQALEDLETCGQSGILRELEATIMSGSTMSLNHEAPTARSQLGRQASFQERSNSRPHYSQTTRSNTLPSDVGRKSVTLRKMKQEIKEIMSPTPVELHKVTLYKDSGMEDFGFSVADGLLEKGVYVKNIRPAGPGDLGGLKPYDRLLQVNHVRTRDFDCCLVVPLIAESGNKLDLVISRNPLASQKSIEQPALPSDWSEQNSAFFQQPSHGGNLETREPTNTL","fold change of the co-precipitate, 1 h BDNF against untreated cells",~6 fold
